The values that follow come from patent publication US20240000885A1 (VANDERBILT UNIVERSITY, published 2024).

Assay [1] concerns the target MHV M cytoplasmic tail (amino acids 105-228), GAL4-BD fusion (mouse hepatitis coronavirus strain A59, UniProt P04386 1-147). The experiment in a line: binary yeast 2-hybrid.
The target of assay [2] is MHV M tail with truncation of 40 carboxyl-terminal amino acids (mouse hepatitis coronavirus strain A59, UniProt P04386 1-147). Kind of assay: binary yeast 2-hybrid.

B1: pAD-MYO5B(ABCE) (other)
chain: GSPDSYSLLLNQLKLAHEELEVRKEEVLILRTQIVSADQRRLAGRNAEPNINARSSWPNSEKHVDQEDAIEAYHGVCQTNRLLEAQLQAQSLEHEEEVEHLKAQLEALKEEMDKQQQTFCQTLLLSPEAQVEFGVQQEISRLTNENLDLKELVEKLEKNERKLKKQLKIYMKKAQDLEA
For B1, in assay [1], the binding result is recorded as “no binding”.

B2: pAD-MYO5B(ABCDE) (other)
chain: GSPDSYSLLLNQLKLAHEELEVRKEEVLILRTQIVSADQRRLAGRNAEPNINARSSWPNSEKHVDQEDAIEAYHGVCQTNSKTEDWGYLNEDGELGLAYQGLKQVARLLEAQLQAQSLEHEEEVEHLKAQLEALKEEMDKQQQTFCQTLLLSPEAQVEFGVQQEISRLTNENLDLKELVEKLEKNERKLKKQLKIYMKKAQDLEA
notes: also called MYO5B ABCDE exons; construct containing just the ABCDE exons
As for B2, the binding result in assay [2] was “no binding”.
